Measurements reported in article PMC4309261.

Biological target: Sp1 (UniProt P08047 2-785)
Assay: EMSA

Sp1, sequence (P08047 2-785): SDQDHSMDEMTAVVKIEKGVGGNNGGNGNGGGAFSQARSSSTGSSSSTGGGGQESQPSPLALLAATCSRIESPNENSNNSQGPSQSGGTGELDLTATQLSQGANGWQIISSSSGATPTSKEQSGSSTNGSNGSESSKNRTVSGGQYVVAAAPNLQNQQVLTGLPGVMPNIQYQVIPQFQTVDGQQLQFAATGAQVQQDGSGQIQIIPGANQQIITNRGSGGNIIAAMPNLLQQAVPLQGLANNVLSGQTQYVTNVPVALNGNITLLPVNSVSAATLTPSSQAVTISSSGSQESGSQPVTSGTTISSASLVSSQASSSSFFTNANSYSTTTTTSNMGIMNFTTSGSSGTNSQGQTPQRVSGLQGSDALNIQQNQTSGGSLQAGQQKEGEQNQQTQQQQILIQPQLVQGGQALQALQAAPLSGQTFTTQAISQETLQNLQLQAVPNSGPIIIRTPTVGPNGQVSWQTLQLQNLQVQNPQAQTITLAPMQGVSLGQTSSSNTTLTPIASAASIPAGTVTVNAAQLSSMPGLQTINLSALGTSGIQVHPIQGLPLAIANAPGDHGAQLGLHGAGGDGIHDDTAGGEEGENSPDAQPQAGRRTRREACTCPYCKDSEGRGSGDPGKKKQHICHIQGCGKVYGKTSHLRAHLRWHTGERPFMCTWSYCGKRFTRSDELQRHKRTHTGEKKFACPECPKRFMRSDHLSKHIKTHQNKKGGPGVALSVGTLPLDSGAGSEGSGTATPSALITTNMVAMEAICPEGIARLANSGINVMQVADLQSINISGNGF

B1: EZH2 promoter GC-rich oligo, wild type (dsDNA)
DNA 1: ACTTGGCTTCCAGCACCCGCCCCGCCCCTCCCCCGCCCGGGAACTCTGCGGCGCCG
DNA 2: CGGCGCCGCAGAGTTCCCGGGCGGGGGAGGGGCGGGGCGGGTGCTGGAAGCCAAGT
  binding result: binds

B2: EZH2 promoter GC-rich oligo, mutant (dsDNA)
DNA 1: ACTTGGCTTCCAGCACCCGAAAAGCTTCTCCAACGTTCGGGAACTCTGCGGCGCCG
DNA 2: CGGCGCCGCAGAGTTCCCGAACGTTGGAGAAGCTTTTCGGGTGCTGGAAGCCAAGT
  binding result: no binding
